Experimental findings from the supplement of paper PMC10126150 are described below.

± gives the standard deviation of the averaged measurements.
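Note: ATP exposure 15 min at 22 °C before imaging.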

The data set concerns ATP. Put plainly: switch fluorescence ratio, 500 uM ATP over buffer (Cy3 cluster intensity, sum of 5 cycles each) (fold (ratio)); higher = stronger signal-on switching upon ATP binding; sequences stand for … in TCGTCGGCAGCGTCAGATGTGTATAAGAGACAGTTTTTTTTTTTTTTTTTTTTTTTTT…TC. The settings on record: aptamer strand: ATP DNA aptamer (quencher-CACCTGGGGGAGTATTGCGGAGGAAGG + anchor), 100 nM annealed; ATP concentration: 500 uM. In outline: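 Cy3-labelled switching-strand clusters on a modified Illumina MiSeq flow-cell were annealed to 100 nM quencher-labelled ATP aptamer and imaged first in selection buffer, then after 15 min with 500 uM ATP at 22 °C. NaOH stripping and re-annealing separated each of five buffer/ATP cycles, and clusters outside 100-1000 RFU were excluded. The fluorescence ratio sums target-cycle Cy3 intensity over buffer-cycle Cy3 intensity per cluster and averages it per switch-domain sequence.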
Consider TTTCTATACG, for which the switch fluorescence ratio came out at 1.02 ± 0.031.

As for TGACCTCGTG, the switch fluorescence ratio was 0.995 ± 0.039.

In the case of TGGAAATCGC, the switch fluorescence ratio amounted to 1 ± 0.04.

Turning to TTTTTCGGG, the switch fluorescence ratio was determined as 0.996 ± 0.014.

Regarding ATTTAGGTGG, the switch fluorescence ratio was 1.02 ± 0.053.

Consider GGTGTCCGGT, for which the switch fluorescence ratio stood at 0.998 ± 0.03.

Take GTATGTCGAG: the switch fluorescence ratio is 0.988 ± 0.014.

ATGTCCACTT: the switch fluorescence ratio turned out to be 1 ± 0.036.

With CGACACCGTG, the switch fluorescence ratio was 1.025 ± 0.0013.

With CGAGCATTGA, the switch fluorescence ratio was found to be 1.12 ± 0.012.

Consider ACCCAAATCA, for which the switch fluorescence ratio is 1.04 ± 0.019.

For the sequence CCGAGTTTTT, the switch fluorescence ratio turned out to be 1.07 ± 0.086.

GCTCTCATAT: the switch fluorescence ratio was determined as 1.027 ± 0.0086.

In the case of AAGCTTTGGA, the switch fluorescence ratio is 0.983 ± 0.012.

Take TTATTCCCGA: the switch fluorescence ratio is 0.9791 ± 0.0095.

Turning to CGCGGTTCTG, the switch fluorescence ratio stood at 1.01 ± 0.029.

Take TATTCATTAA: the switch fluorescence ratio came out at 0.969 ± 0.011.

Take TCTTGATTTT: the switch fluorescence ratio stood at 1 ± 0.011.

Turning to GGGGCAACGT, the switch fluorescence ratio was 0.983 ± 0.012.

On to AACGAGAGGG, for which the switch fluorescence ratio was found to be 1.04 ± 0.035.

Regarding CGGAGGATGG, the switch fluorescence ratio was determined as 0.9867 ± 0.0084.

As to TTTCGAAAGG, the switch fluorescence ratio worked out at 0.983 ± 0.043.

Take AGGTCGGGTA: the switch fluorescence ratio is 0.979 ± 0.038.

Regarding TTAATTTTCG, the switch fluorescence ratio was determined as 1.04 ± 0.066.

Turning to TTGTAATGTT, the switch fluorescence ratio came to 1.01 ± 0.051.

For the sequence CTAGACGTTT, the switch fluorescence ratio was 1.01 ± 0.047.

With GTTCTGCAAT, the switch fluorescence ratio is 3.97 ± 0.11.

Turning to AACCTGTCGG, the switch fluorescence ratio stood at 1.01 ± 0.028.

Take AAATAAGTGA: the switch fluorescence ratio turned out to be 0.979 ± 0.013.

Take GGGGAAAGAG: the switch fluorescence ratio worked out at 1 ± 0.017.

With AGTTAATTTT, the switch fluorescence ratio was found to be 1.0014 ± 0.0007.

On to TTCATAGTTC, for which the switch fluorescence ratio was determined as 0.986 ± 0.013.

Take GTATTTTCGC: the switch fluorescence ratio was determined as 1.02 ± 0.017.

For ACTTGGTCTT, the switch fluorescence ratio was 0.974 ± 0.03.

Regarding AGTTGGATGT, the switch fluorescence ratio is 0.977 ± 0.012.

Regarding CCGGACGCGT, the switch fluorescence ratio worked out at 1.52 ± 0.26.

For the sequence ATTGATATTG, the switch fluorescence ratio was found to be 0.979 ± 0.011.

As for GCAGGAGCGG, the switch fluorescence ratio amounted to 0.998 ± 0.0094.

TTGTCAATGT: the switch fluorescence ratio was 1.06 ± 0.053.

On to ACATTGAGCG, for which the switch fluorescence ratio was 1.03 ± 0.028.

Take GGTGTGCGTC: the switch fluorescence ratio was 1 ± 0.026.

With CCTAGATAAC, the switch fluorescence ratio worked out at 1.16 ± 0.039.

Turning to CGCACCATGC, the switch fluorescence ratio came out at 2.41 ± 0.073.

On to GTGTTAATTA, for which the switch fluorescence ratio is 0.989 ± 0.021.

Turning to TTTTGGGA, the switch fluorescence ratio was found to be 1.01 ± 0.064.

On to TTAAGGCGGG, for which the switch fluorescence ratio worked out at 1 ± 0.05.

Regarding GCGGGGGGGG, the switch fluorescence ratio is 1.02 ± 0.041.

For TGGAAGTGGG, the switch fluorescence ratio was found to be 1.03 ± 0.042.

With AAGGTATGGG, the switch fluorescence ratio turned out to be 1.06 ± 0.073.

For the sequence AAGATGGGTG, the switch fluorescence ratio is 0.9968 ± 0.005.

For the sequence CAATGAGGTG, the switch fluorescence ratio is 1.08 ± 0.036.

Turning to TTCGAGTGCC, the switch fluorescence ratio amounted to 0.991 ± 0.013.

Regarding TCCCGGTCCG, the switch fluorescence ratio amounted to 1 ± 0.027.

Consider TTTGGGACTT, for which the switch fluorescence ratio was found to be 1.01 ± 0.035.

GATTGTTTTT: the switch fluorescence ratio came to 0.997 ± 0.044.

GATCGCTTGG: the switch fluorescence ratio stood at 1.04 ± 0.036.

Consider TTGTAGACAG, for which the switch fluorescence ratio came out at 1.013 ± 0.0088.

As for TTAGACCGTG, the switch fluorescence ratio was 0.956 ± 0.079.

Consider TACGAATGGG, for which the switch fluorescence ratio came to 1.01 ± 0.037.

On to AAGACCGTTG, for which the switch fluorescence ratio came out at 0.967 ± 0.017.

On to CGCTTCTAGG, for which the switch fluorescence ratio was 1.04 ± 0.024.

Regarding TACCACTGCG, the switch fluorescence ratio amounted to 1.04 ± 0.029.

With TCAAGTAGAG, the switch fluorescence ratio came to 0.99 ± 0.011.

Regarding CAGTAAAGGA, the switch fluorescence ratio was 1.02 ± 0.053.

Consider CCTGGGGAAT, for which the switch fluorescence ratio was 1.91 ± 1.1.

Consider AAGATAGGTT, for which the switch fluorescence ratio was 1.02 ± 0.057.

Consider CGGATTCGTA, for which the switch fluorescence ratio was 0.986 ± 0.036.

As for ACTGGGTAAA, the switch fluorescence ratio was found to be 1.002 ± 0.0086.

For the sequence GGGTTTTCGG, the switch fluorescence ratio worked out at 0.987 ± 0.026.

As to TCTAATCGGA, the switch fluorescence ratio was 0.975 ± 0.04.

Regarding AAGGGGTTCA, the switch fluorescence ratio amounted to 0.991 ± 0.03.

For the sequence TATGACTCGT, the switch fluorescence ratio is 0.99 ± 0.021.

CGGAGGGGCC: the switch fluorescence ratio is 1.02 ± 0.033.

Regarding ATAGCGGTCG, the switch fluorescence ratio amounted to 1.01 ± 0.07.

On to GGCGGCGAGG, for which the switch fluorescence ratio is 1.02 ± 0.011.

TTACGCTACT: the switch fluorescence ratio worked out at 1.802 ± 0.0047.

As for AAGGGTTTTT, the switch fluorescence ratio was 0.994 ± 0.025.

As for CCTATAGTAC, the switch fluorescence ratio turned out to be 1.69 ± 0.05.

For AAAAATTCCG, the switch fluorescence ratio came out at 1.045 ± 0.0036.

For the sequence GTTCACGTAA, the switch fluorescence ratio was 1.16 ± 0.15.

For GGACAAACGT, the switch fluorescence ratio came out at 1.2 ± 0.052.

As for ACCAAGCTTT, the switch fluorescence ratio was determined as 1.04 ± 0.016.

Turning to AAGTGATTTG, the switch fluorescence ratio was 1.01 ± 0.018.

As to ACTTGGGGGA, the switch fluorescence ratio was found to be 0.9907 ± 0.0057.

ACACTAATCT: the switch fluorescence ratio came out at 1.16 ± 0.15.

Turning to TGGGTAGTAC, the switch fluorescence ratio stood at 1.04 ± 0.039.

Consider TTTAATATAT, for which the switch fluorescence ratio was determined as 1.02 ± 0.031.

For the sequence TTTATGCAGC, the switch fluorescence ratio worked out at 1.12 ± 0.16.

In the case of TGGATAGGGG, the switch fluorescence ratio worked out at 1.03 ± 0.012.

On to GCGTTCCTTG, for which the switch fluorescence ratio was determined as 1.071 ± 0.0017.

Turning to GCGCGGGGGA, the switch fluorescence ratio was found to be 1.02 ± 0.025.

AAGAAAGGTA: the switch fluorescence ratio was 1.01 ± 0.025.

On to CGGTGGCATA, for which the switch fluorescence ratio is 1.04 ± 0.018.

As for TTTTGATGAT, the switch fluorescence ratio came to 1.02 ± 0.013.

For TTTTTGTGTT, the switch fluorescence ratio is 1 ± 0.025.

In the case of GAGTTAATGT, the switch fluorescence ratio is 1.01 ± 0.043.

For TAAGCTCTGT, the switch fluorescence ratio is 0.984 ± 0.021.

In the case of AAAATTTTGG, the switch fluorescence ratio amounted to 1 ± 0.043.

As to GTTTTTTGGA, the switch fluorescence ratio was determined as 1.01 ± 0.018.

Regarding ATGGTTCCCC, the switch fluorescence ratio turned out to be 1.03 ± 0.013.

GAACTTTTTA: the switch fluorescence ratio turned out to be 0.981 ± 0.011.

On to GGGTGAAGGC, for which the switch fluorescence ratio is 0.971 ± 0.058.

On to ACAGCTGCTT, for which the switch fluorescence ratio worked out at 0.981 ± 0.028.

GATACAGTGC: the switch fluorescence ratio amounted to 1.059 ± 0.002.

Turning to CAAGACCACT, the switch fluorescence ratio turned out to be 1.06 ± 0.045.

With TTAGATGTCC, the switch fluorescence ratio came out at 0.9822 ± 0.0075.

CACCGGCTGG: the switch fluorescence ratio turned out to be 0.986 ± 0.086.

Consider AACTTTGTTG, for which the switch fluorescence ratio was determined as 1 ± 0.011.

On to TACCATTTTG, for which the switch fluorescence ratio amounted to 1 ± 0.028.

On to TTTCCCAAAA, for which the switch fluorescence ratio is 1.04 ± 0.08.

For the sequence ATGTTGGTAT, the switch fluorescence ratio worked out at 1 ± 0.022.

With CCGTTCTTAC, the switch fluorescence ratio turned out to be 2.84 ± 1.1.

As for GCGGGGGCAG, the switch fluorescence ratio was 0.993 ± 0.013.

Take TTTTTGTAT: the switch fluorescence ratio turned out to be 0.979 ± 0.015.

Regarding GCTCGAGTTG, the switch fluorescence ratio stood at 0.9967 ± 0.0094.

Turning to CTGTGTGATG, the switch fluorescence ratio is 0.991 ± 0.017.

For GAAAGTCTGT, the switch fluorescence ratio amounted to 1.07 ± 0.087.

With TATAGACAGG, the switch fluorescence ratio stood at 0.989 ± 0.057.

Regarding GCTGGGGTTT, the switch fluorescence ratio turned out to be 0.996 ± 0.043.

GGGCACGTCG: the switch fluorescence ratio came out at 0.9888 ± 0.0094.
